# In US20240287172A1 (SCIRHOM, published 2024):
# T1: hiR2-FL-S562E-T7 (human, UniProt Q6PJF5 1-856)
# T1 sequence: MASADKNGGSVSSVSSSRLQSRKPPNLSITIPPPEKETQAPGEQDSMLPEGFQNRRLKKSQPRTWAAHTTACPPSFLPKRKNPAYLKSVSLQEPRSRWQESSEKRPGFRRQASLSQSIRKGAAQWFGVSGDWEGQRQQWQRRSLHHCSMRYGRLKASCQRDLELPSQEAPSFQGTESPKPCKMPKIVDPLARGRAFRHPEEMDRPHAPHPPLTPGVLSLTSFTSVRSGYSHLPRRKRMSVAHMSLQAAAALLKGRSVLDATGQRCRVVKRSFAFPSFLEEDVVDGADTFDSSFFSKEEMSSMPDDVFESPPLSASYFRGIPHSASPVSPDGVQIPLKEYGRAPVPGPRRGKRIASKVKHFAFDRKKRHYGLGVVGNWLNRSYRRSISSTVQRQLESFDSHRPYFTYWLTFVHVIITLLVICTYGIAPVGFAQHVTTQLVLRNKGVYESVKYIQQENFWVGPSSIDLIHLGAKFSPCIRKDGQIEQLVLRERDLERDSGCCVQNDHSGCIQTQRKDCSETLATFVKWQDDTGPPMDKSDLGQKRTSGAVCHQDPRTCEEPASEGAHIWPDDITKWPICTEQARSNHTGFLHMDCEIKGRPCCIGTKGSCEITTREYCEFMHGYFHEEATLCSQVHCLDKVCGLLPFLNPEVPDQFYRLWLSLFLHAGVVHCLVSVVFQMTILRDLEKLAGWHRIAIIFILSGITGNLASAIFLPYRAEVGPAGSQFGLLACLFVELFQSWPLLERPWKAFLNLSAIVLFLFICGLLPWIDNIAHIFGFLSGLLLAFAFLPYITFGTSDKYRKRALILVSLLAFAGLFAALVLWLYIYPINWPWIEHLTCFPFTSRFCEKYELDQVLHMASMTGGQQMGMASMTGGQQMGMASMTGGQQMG
# B1: antibody 5 (antibody, V domains shown)
# VH: QVTLKESGPGILQPSQTLSLTCSFSGFSLSTFGMGVGWIRQPSGKGLEWLAHIWWDDEKYYNSALKSRLTISKATSKNQAFLKIANVDTADTATYYCARISNYGSNYWYFNVWGTGTTVTVSS
# VL: QVVLTQSPALMSASPGEKVTMTCSAGSSVSCMYWYQQKPGSSPRVLIYDTSNLASGVPARFTGSGSGTSYSLTISRMEAEDAASYYCQQWNSYPLTFGAGTKLELK
# notes: mouse IgG, kappa light chain; also called clone #5; purified antibody 5
# B2: antibody 22 (antibody, V domains shown)
# VH: QVTLKESGPGILQPSQTLSLTCSFSGFSLSTFGMGVGWIRQPSGKGLEWLAHIWWDDEKYYNSALKSRLTISKATSKNQVFLKIANVDTADTATYYCARISNYGSNYWYFNVWGTGTTVTVSS
# VL: QVVLTQSPALMSASPGEKVTMTCSAGSSVSYMYWYQQKPGSSPRVLIYDTSNLASGVPARFTGSGSGTSYSLTISRMEAEDAATYYCQQWNSYPLTFGAGTKLELK
# notes: mouse IgG, kappa light chain; also called clone #22; purified antibody 22
# B3: antibody 42 (antibody, V domains shown)
# VH: QVTLKESGPGILQPSQTLSLTCSLSGFSLSTFGRGVGWIRQPSGKGLEWLAHIWWDDEKYYNPALKSRLTISKDTSKNQVFLRIANVDTADTATYYCARIQNYGSNYWYFDVWGTGTTVTVSS
# VL: LIVLTQSPAIMSASPGEKVTMTCGATSRISYMFWYQQKPGSSPRVLIYDTSNLASGVPVRFSGSGSGTSYSLTISRVEAEDVATYYCQQWNSYPLTFGAGTKLELK
# notes: mouse IgG, kappa light chain; also called clone #42; purified antibody 42
# B4: antibody 3 (antibody, V domains shown)
# VH: QVTLKESGPGILQPSQTLSLTCSFSGFSLTTFAMGIGWVRQPSGKGLEWLAHIWWDGEKYNNPVLKSRLTISKDTSKNQVFLRIANVDTPDTATYYCARISSIYYIIDNWGQGTSVTVSS
# VL: DIVLTQSPATLSVTPGHSVSLSCRASQSISNNLHWYQKKSHESPRLLIKYVSQSISGIPSRFSGSGSGTDFTLSINSVETEDFGMYFCQQSYNWPLTFGAGTKLELK
# notes: mouse IgG, kappa light chain; also called clone #3; purified antibody 3
# B5: antibody 34 (antibody, V domains shown)
# VH: QVTLKESGPGILQPSQTLSLTCSFSGFSLSTFSLGVGWIRQSSGKGLEWLAHIWWDDEKYYNPALKSRLTISKDTSKNQVFLKIANVDAADTATYYCARAYYSKSYYALDYWGQGTSVTVSS
# VL: DIQMTQSPSSLSASLGERVSLTCRASQEISGYLSWLQQKPDGTIKRLIYAASTLDSGVPKRFSGSRSGSDYSLAISSLESEDFADYYCLQYANFPFTFGSGTKLEIK
# notes: mouse IgG, kappa light chain; also called clone #34; purified antibody 34
# B6: antibody 43 (antibody, V domains shown)
# VH: QVALKESGPGILQPSQTLSLTCSFSGFSLSTFGMGVGWIRQSSGKGLEWLANIWWDDDKYYNPALKSRLTISKDASKNQAFLKIANVDTADTATYYCARIGNYGSNYWYFDVWGTGTTVTVSS
# VL: QIVLTQSPAIMSASPGERVTMTCSANSRISYMYWYQQKPGSSPRLLIYDTSNLASGVPVRFSGSGSGTSYSLTISRMEAEDAATYNCQQWSSYPLTFGAGTKLELK
# notes: mouse IgG, kappa light chain; also called clone #43; purified antibody 43
# B7: antibody 44 (antibody, V domains shown)
# VH: QVTLKESGPGILQPSQTLSLTCSFSGFSLSTFGMGVGWIRQPSEKGLEWLAHIWWDDDKYYNPALKSRLTISKDTSKNQIFLKITNVDTAETATYYCSRIGNYGSNYWYFDVWGTGTTVTVSS
# VL: QIVLTQSPAVMSASPGEKVTMTCTASSSVYYMYWYQQTPGSSPRLLIYDTSNLASGVPVRFSGSGSGTSYSLTISRMEAEDAATYYCQQWNTYPLTFGAGTKLELK
# notes: mouse IgG, kappa light chain; also called clone #44; purified antibody 44
# B8: antibody 48 (antibody, V domains shown)
# VH: QVQLQQSGTELVRPGTSVKVSCKASGYAFTNYLIEWVKQRPGQGLEWIGVINPGSGFTKYNEKFKGKATLTADKSSSTVYMHLSSLTSEDSAVYFCARGLYRAMDYWGQGTSVTVSS
# VL: DIQMTQSPASQSASLGESVTITCLASQTIATWLAWYQQKPGKSPQLLIYGATTLADGVPSRFSGGGSGTKFSFKISSLQAEDFVSYYCQQLYSTPYTFGGGTKLEIK
# notes: mouse IgG, kappa light chain; also called clone #48; purified antibody 48
# B9: antibody 50 (antibody, V domains shown)
# VH: QVQLQQSGAELVRPGASVKVSCKASGYAFSNYLIEWVKQRPGQGLEWIGVINPGSGFTKYNEKFKGKATLTADKSSSTAYMQLSSLTSEDSAVYFCARGLYRAMDYWGQGTSVTVSS
# VL: DIQMTQSPASQSASLGESVTITCLASQTIGTWLAWYQQKPGKSPQLLIYAAASLADGVPSRFSGGGSGTKFSFKISSLQAEDFVNYYCQQIYSTPYTFGGGTKLEIK
# notes: mouse IgG, kappa light chain; also called clone #50; purified antibody 50
# Target: T1, hiR2-FL-S562E-T7
# Assay: FACS, MEF-DKO cells, 3 µg/ml
# Source text: In brief, immortalized MEF-DKO-hiR2-FL-G498A-T7, MEF-DKO-hiR2-FL-Q502R-T7, MEF-DKO-hiR2-FL-I509V-T7, MEF-DKO-hiR2-FL-Q512S-T7, MEF-DKO-hiR2-FL-R513E-T7, MEF-DKO-hiR2-FL-K514E-T7, MEF-DKO-hiR2-FL-D515E-T7, MEF-DKO-hiR2-FL-E518S-T7, MEF-DKO-hiR2-FL-T522V-T7, MEF-DKO-hiR2-FL-F523W-T7, MEF-DKO-hiR2-FL-Q527P-T7, MEF-DKO-hiR2-FL-D528I-T7, MEF-DKO-hiR2-FL-D529H-T7, MEF-DKO-hiR2-FL-T530P-T7, MEF-DKO-hiR2-FL-G531S-T7, MEF-DKO-hiR2-FL-P532A-T7, MEF-DKO-hiR2-FL-M534-T7, MEF-DKO-hiR2-FL-D535-T7, MEF-DKO-hiR2-FL-K536-T7, MEF-DKO-hiR2-FL-S537E-T7, MEF-DKO-hiR2-FL-D538L-T7, MEF-DKO-hiR2-FL-L539A-T7, MEF-DKO-hiR2-FL-Q541H-T7, MEF-DKO-hiR2-FL-T544Q-T7, MEF-DKO-hiR2-FL-S545F-T7, MEF-DKO-hiR2-FL-A547S-T7, MEF-DKO-hiR2-FL-T555V-T7, MEF-DKO-hiR2-FL-E557D-T7, MEF-DKO-hiR2-FL-A560S-T7 and MEF-DKO-hiR2-FL-S562E-T7 cells were harvested with 10 mM EDTA in PBS, washed and resuspended in FACS buffer (PBS, 3% FBS, 0.05% sodium azide), and seeded in Nunc U-bottom 96-well plates (Thermo Fisher Scientific, USA) at approximately 3×10⁵ cells per well. To pellet cells and remove supernatants, the plates were centrifuged at 1,500 rpm and 4° C. for 3 minutes. For primary staining, cells were resuspended in 100 μl per well of either FACS buffer alone (controls) or the purified antibodies 3, 5, 16, 22, 34, 42, 43, 44, 48, and 50 of the invention at 3 μg/ml in FACS buffer and incubated on ice for 1 hour. Afterwards, plates were centrifuged at 1,500 rpm and 4° C. for 3 minutes and washed twice with 200 μl per well of FACS buffer. For secondary staining, cells were spun down and resuspended in 100 μl per well of PE-conjugated goat anti-mouse IgG F(ab′)2 detection fragment (Dianova, Germany) diluted 1:100 in FACS buffer. Protected from light, the cell suspensions were incubated on ice for 1 hour. Plates were then centrifuged at 1,500 rpm and 4° C. for 3 minutes and washed three times with 200 μl per well of FACS buffer. Finally, cells were resuspended in 150 μl per well of FACS buffer and analyzed using a BD Accuri™ C6 Plus flow cytometer (Becton Dickinson, Germany).
row,Binder,loss of binding vs wild type
1,B1,≥ 60%
2,B2,≥ 30%
3,B3,≥ 60%
4,B4,≥ 30%
5,B5,≥ 60%
6,B6,≥ 60%
7,B7,≥ 30%
8,B8,≥ 30%
9,B9,≥ 30%
